Measurements from patent US12144864B2, “Tubulysins and protein-tubulysin conjugates” (Regeneron Pharmaceuticals, Inc., priority 2018, dated 2024).

T1: STEAP2 endogenously expressed on C4-2 prostate cancer cells (human, UniProt Q8NFT2 1-490)
T1 sequence (looked up): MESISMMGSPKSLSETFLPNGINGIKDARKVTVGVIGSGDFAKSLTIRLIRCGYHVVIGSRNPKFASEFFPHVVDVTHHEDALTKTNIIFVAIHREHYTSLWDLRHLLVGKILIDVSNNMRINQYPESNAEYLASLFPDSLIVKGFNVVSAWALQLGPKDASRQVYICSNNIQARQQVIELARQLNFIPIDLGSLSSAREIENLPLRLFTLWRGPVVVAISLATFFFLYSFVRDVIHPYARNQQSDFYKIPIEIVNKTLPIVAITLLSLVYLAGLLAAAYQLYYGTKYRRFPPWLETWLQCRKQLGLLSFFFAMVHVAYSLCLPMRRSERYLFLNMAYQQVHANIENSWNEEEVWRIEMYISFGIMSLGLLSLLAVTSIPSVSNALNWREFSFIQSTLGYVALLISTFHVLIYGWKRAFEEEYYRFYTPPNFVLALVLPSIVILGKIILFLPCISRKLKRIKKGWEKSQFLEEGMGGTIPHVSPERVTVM

B1: anti-STEAP2-LP5 (antibody, V domains shown)
VH: QVQLVESGGGVVQPGRSLRLSCVASGFTISSYGMNWVRQAPGKGLEWVAVISYDGGNKYSVDSVKGRFTISRDNSKNTLYLQMNSLRAEDSAVYYCARGRYFDLWGRGTLVTVSS
VL: DIQMTQSPSTLSASVGDRVTITCRASQSISSWLAWYQQKPGRAPNLLISKASSLKSGVPSRFSGSGSGTEFTLTVSSLQPDDFATYYCQQYYSYSYTFGQGTKLEIK
modifications: linker-payload LP5 (DIBAC-suc-PEG4-VA, payload IVd) conjugated; site and DAR of this conjugate not printed (the site-specific procedure uses N297Q, EU numbering, with azido-PEG3-amine on glutamines)
B2: Anti-PRLR-LP3 (conjugate)
VH: QVQLVESGGGVVQPGRSLRLSCGASGFTFRNYGMQWVRQGPGKGLEWVTLISFDGNDKYYADSVKGRFTISRDNSKNTLFLQMNSLRTEDTAVYYCARGGDFDYWGQGTLVTVSS
VL: DIQMTQSPSSLSASVGDRVTITCRASQDIRKDLGWYQQKPGKAPKRLIYAASSLHSGVPSRFSGSGSGTEFTLTISSLQPEDFATYYCLQHNSYPMYTFGQGTKLEIK
modifications: non-natural residues
B3: Anti-PRLR-LP4 (conjugate)
VH: B2 VH
VL: B2 VL
modifications: non-natural residues

How the values were obtained:
[1] = molecular target: T1, STEAP2 endogenously expressed on C4-2 …; assay: cell-based or functional assay
[2] = test system: C4-2 cells; assay: Cytotoxicity of anti-STEAP2 ADCs, payloads and reference compounds in C4-2 cells; assay type: cell-based, human; details: at maximum concentration tested
Procedure: (§1) To test the ability of the disclosed tubulysin payloads to kill human cell lines, an in vitro cytotoxicity assay was performed. In vitro cytotoxicity of the disclosed payloads, as well as reference compounds, were evaluated using the CellTiter-Glo Assay Kit (Promega, Cat #G7573), in which the quantity of ATP present is used to determine the number of viable cells in culture. For the assay, C4-2, HEK293, or T47D cells were seeded at 4000 cells/well on Nunclon white 96-well plates in complete growth medium (DME high glucose:Ham's F12 at 4:1, 10% FBS, 100 units/ml Penicillin, 100 ug/ml streptomycin, 53 ug/ml glutatmine, 10 ug/ml insulin, 220 ng/ml biotin, 12.5 pg/ml T3, 12.5 ug/ml Adenine, 4 ug/ml transferrin for C42 cells; DME high glucose, 10% FBS, 100 units/ml Penicillin, 100 ug/ml streptomycin, 53 ug/ml glutatmine for HEK293; RPMI, 10% FBS, 100 units/ml Penicillin, 100 ug/ml streptomycin, 53 ug/ml glutatmine, 10 ug/ml insulin, 10 mM HEPEs, 200 nM Sodium Pyruvate for T47D cells) and grown overnight at 37° C. in 5% CO2. For cell viability curves, 1:3 serially diluted payloads were added to the cells at final concentrations ranging from 100 nM to […], including a no treatment control group, and were then incubated for 5 days. After the 5-day incubation, cells were incubated at room temperature with 100 μL of CellTiter-Glo reagents for 10 minutes. Relative luminescence units (RLU) were determined on a Victor plate reader (PerkinElmer). The IC50 values were determined from a four-parameter logistic equation over a 10-point response curve (GraphPad Prism). All IC50 values are expressed in molar (M) concentration. The percent cell killing (% kill) at the maximum concentration tested was estimated from the following formula (100−% viable cells). Averages±standard deviation (SD) are included where replicate experiments were performed.
To further test the ability of the disclosed tubulysin payloads, reference compounds, and antibody drug conjugates using these payloads, a cytotoxicity assay was performed using C4-2 cells as described in this example (see above). For these studies, anti-STEAP2 antibodies were conjugated to select tubulysins payloads, and the compounds were tested at concentrations starting at 100 nM with 3-fold serial dilution. All IC50 values are expressed in nM concentration and the percent cell killing at the maximum concentration tested was estimated from the following formula (100−% viable cells).

[3] = In vitro plasma stability of ADCs (DAR by LC-MS), mouse plasma; assay type: in vitro ADME; details: 37° C., 50 μg/mL, DAR at 0 hr 3.8 (LP3 ADC), 4.0 (LP4 ADC), acetyl-hydrolyzed species counted as loss of drug
Procedure: (§2) To determine the plasma stability of representative ADCs containing the tubulysin payloads, ADCs were incubated in vitro with plasma from different species, and the DAR was evaluated after incubation at physiological temperature (37° C.) for 3 days.
(§3) For the assay, each ADC sample (anti-PRLR antibody-LP3 or anti-PRLR antibody-LP4) in PBS buffer was added to fresh pooled male mouse, cynomologus monkey, rat, or human plasma, separately, at a final concentration of 50 μg/mL in a 96-well plate, and subsequently incubated at 37° C. for 72 hours. After incubation, each sample (100 μL final volume) was individually frozen at −80° C. until analysis.
(§4) Affinity capture of the ADCs from the plasma samples was carried out on a KingFisher 96 magnetic particle processor (Thermo Electron). First, biotinylated extracellular domain of human PRLR expressed with a myc-myc hexahistidine tag (hPRLR ecto-MMH; SEQ ID NO: 17;100 μg/mL) was immobilized on streptavidin paramagnetic beads (In vitrogen, Cat #60210). Each plasma sample containing tubulysin ADCs (100 μL) was mixed at 600 rpm with 100 μL of the beads (the commercial beads come in volume) at room temperature for 2 hours in a 96-well plate. The beads were then washed three times with 600 μL of HBS-EP (GE healthcare, Cat #BR100188), once with 600 μL of H2O, and then once with 600 μL of 10% acetonitrile in water. […]

[4] = In vitro plasma stability of ADCs (DAR by LC-MS), cynomolgus monkey plasma; assay type: in vitro ADME; details: 37° C., 50 μg/mL, DAR at 0 hr 3.8 (LP3 ADC), 4.0 (LP4 ADC), acetyl-hydrolyzed species counted as loss of drug
Procedure: as §2, §3, §4

[5] = In vitro plasma stability of ADCs (DAR by LC-MS), rat plasma; assay type: in vitro ADME; details: 37° C., 50 μg/mL, DAR at 0 hr 3.8 (LP3 ADC), 4.0 (LP4 ADC), acetyl-hydrolyzed species counted as loss of drug
Procedure: as §2, §3, §4

[6] = In vitro plasma stability of ADCs (DAR by LC-MS), human plasma; assay type: in vitro ADME; details: 37° C., 50 μg/mL, DAR at 0 hr 3.8 (LP3 ADC), 4.0 (LP4 ADC), acetyl-hydrolyzed species counted as loss of drug
Procedure: as §2, §3, §4

[7] = test system: HCT15/PRLR cells; assay: Cytotoxicity of anti-PRLR tubulysin ADCs and payloads in HCT15/PRLR cells with or without Verapamil; assay type: cell-based, human; details: at maximum concentration tested; for % kill on HCT15/PRLR w/ Verapamil: with Verapamil; for % kill on HCT15/PRLR w/o Verapamil: without Verapamil
Procedure: as §1
Bioassays were developed to assess the efficacy of an anti-PRLR antibody conjugated with the disclosed tubulysin payloads and reference payloads. It was developed to assess the activity of tubulysin payloads after internalization of an anti-PRLR-tubulysin ADC into cells, release of the payload, and subsequent cytotoxicity. For this assay, a HCT15 line was engineered to express human full length PRLR (accession #NP_000940.1). The resulting stable cell line is referred to herein as HCT15/PRLR. In vitro cytotoxicity of the disclosed payloads, reference compounds, and tested ADCs were evaluated similarly as described in this example using HCT15/PRLR cells with or without […] of Verapamil diluted in normal culture medium. The compounds were tested at concentrations starting at 100 nM with 3-fold serial dilution. All IC50 values are expressed in nM concentration and the percent cell killing (% kill) at the maximum concentration tested was estimated from the following formula (100−% viable cells).

Molecule	IC50, cytotoxicity in the C4-2 cell based assay (CellTiter-Glo) [1] [nM]	% kill [2] [%]	DAR after 72 hours of incubation [3]	DAR after 72 hours of incubation [4]	DAR after 72 hours of incubation [5]	DAR after 72 hours of incubation [6]	% kill on HCT15/PRLR w/ Verapamil [7] [%]	% kill on HCT15/PRLR w/o Verapamil [7] [%]
B1	0.28	96	–	–	–	–	–	–
B2	–	–	2.7	2.7	2.7	3.0	91	90
B3	–	–	2.7	2.7	2.6	3.0	91	65
